Assay results taken from patent publication US20190077860A1 (EISAI R AND D MANAGEMENT, published 2019).

Key:
[1] = biological target: T1, human EphA4 extracellular region-SEAP-His protein (human, UniProt P54764 20-547); assay: SPR (Biacore A100), antibody A captured on a rat anti-mouse IgG1 CM5 chip, human EphA4 extracellular region-SEAP-His as analyte at 0.8-50 nM, 1:1 fit
T1 construct: also called hEphA4-SEAP-His
Method: The binding affinity of antibody A obtained in Example 1 for mouse and human EphA4 was determined by surface plasmon resonance (SPR) using Biacore A100 (GE Healthcare). First, a rat anti-mouse IgG₁ antibody produced with a conventional procedure by immunizing rat with a mouse IgG₁ antibody was immobilized on sensor chip CM5. The immobilization of the rat anti-mouse IgG1 antibody on sensor chip CM5 was performed by the amine coupling method using N-hydroxysuccinimide (NHS) and N-ethyl-N′-(3-dimethylaminopropyl)carbodiimide hydrochloride (EDC). Ethanolamine was used in blocking (the sensor chip and the reagents for immobilization were all manufactured by GE Healthcare). The antibody was diluted with a buffer solution for immobilization (10 mM sodium acetate, pH 4.5) into 1 to 2 μg/mL and immobilized on the sensor chip according to the protocol attached to Biacore A100. Antibody A was diluted with a running buffer solution HBS-EP (GE Healthcare, BR-1001-88), injected onto a flow cell for 120 seconds, and captured (amount of the antibody captured: approximately 70 to 100 RU). Subsequently, mouse or human EphA4 extracellular region-SEAP-His serially diluted in the range of 50, 25, 12.5, 6.3, 3.1, 1.6, 0.8, and 0 nM using HBS-EP was added to the sensor chip for 120 seconds. […]

[2] = biological target: T1, human EphA4 extracellular …; assay: SPR, Ab captured
Summary of the method: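 Affinity (KD=kd/ka) obtained by fitting SPR curves to a 1:1 model. Analyte was human EphA4 extracellular region-SEAP-His, injected sequentially from 0.6 to 50 nM in HBS-EP (120 s on, 900 s off), onto humanized antibodies on protein A or antibody A on anti-mouse IgG1 surfaces, capture level about 30–60 RU.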

T1 sequence (P54764 20-547): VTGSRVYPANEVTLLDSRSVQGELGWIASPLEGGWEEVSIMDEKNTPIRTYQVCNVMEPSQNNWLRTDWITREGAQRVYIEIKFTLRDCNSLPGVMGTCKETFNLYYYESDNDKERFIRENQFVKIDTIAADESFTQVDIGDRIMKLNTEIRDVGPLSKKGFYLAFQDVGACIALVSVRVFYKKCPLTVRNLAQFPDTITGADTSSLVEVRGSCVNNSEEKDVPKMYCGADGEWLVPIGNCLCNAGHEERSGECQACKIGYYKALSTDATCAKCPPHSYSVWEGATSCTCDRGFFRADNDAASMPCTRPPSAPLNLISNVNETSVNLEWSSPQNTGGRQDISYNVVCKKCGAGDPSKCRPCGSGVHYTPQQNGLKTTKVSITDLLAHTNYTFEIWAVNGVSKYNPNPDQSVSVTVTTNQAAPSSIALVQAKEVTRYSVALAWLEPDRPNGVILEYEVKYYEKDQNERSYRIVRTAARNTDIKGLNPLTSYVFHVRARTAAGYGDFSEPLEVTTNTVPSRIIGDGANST

B1: antibody A (antibody, mouse IgG1, kappa, V domains shown)
VH: QIQLVQSGPELKKPGETVKISCKASGYTFTDYSMHWVKQAPGKGLKWMGWINTETGEPTYADDFKGRFAFSLETSASTAYLQINNLKNEDTATYFCARIPLYYYGSRYWYFDVWGAGTTVTVSS
VL: DIQMTQSPASLSVSVGETVTITCRASENIYRNLAWYQQKQGKSPQLLVYAATNLADGVPSRFSGSGSGTQYSLKINSLQSEDFGSYYCQHFWGTPWTFGGGTKLEIKR
notes: mouse IgG1 heavy chain, kappa light chain; purified from hybridoma supernatant; also called anti-EphA4 monoclonal antibody; antibody A-IgG
Q: Which results are given for B1?
A: koff [1]: 0.000152 s⁻¹; kon [1]: 210000 M⁻¹ s⁻¹; Kd [2]: 0.6 nM; koff [2]: 0.00025 s⁻¹; kon [2]: 420000 M⁻¹ s⁻¹
